Test results from the supplement of paper PMC7877785.
± gives the uncertainty stated by the source.

Test: self-splicing fitness, log relative to wild type (ln ratio); higher = more splicing; Tetrahymena group I intron in knt gene, E. coli kanamycin selection, DiMSum; sequences stand for … in CUCUCU…GGAGGGAAAAGUUAUCAGGCAUGCACCUGGUAGCUAGUCUUUAAACCAAUAGAUUGCAUCGGUUUAAAAGGCAAGACCGUCAAAUUGCGGGAAAGGGGUCAACAGCCGUUCAGUACCAAGUCUCAGGGGAAACUUUGAGAUGGCCUUGCAAAGGGUAUGGUAAUAAGCUGACGGACAUGGUCCUAACCACGCAGCCAAGUCCUAAGUCAACAGAUCUUCUGUUGAUAUGGAUGCAGUUCACAGACUAAAUGUCGGUCGGGGAAGAUGUAUUCUUCUCAUAAGAUAUAGUCGGACCUCUCCUUAAUGGGAGCUAGCGGAUGAAGUGAUGCAACACUGGAGCCGCUGGGAACUAAUUUGUAUGCGAAAGUAUAUUGAUUAGUUUUGGAGUACUCGUGGUCG
Procedure, shortened: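 Pooled colonies went to amplicon sequencing on an Illumina HiSeq 2500 after six replicate transformations. The plates were LB agar with 100 μg/mL carbenicillin, 50 μM IPTG and 0.2% rhamnose, with or without 25 μg/mL kanamycin, incubated overnight at 37°C or 30°C. The E. coli BL21(DE3) library had all eight P1ex-region intron nucleotides randomised, the intron placed in the knt kanamycin-resistance gene on pET-22b(+). DiMSum fitness is the error-weighted combination of replicate fold changes, kanamycin against none, normalised to wild type.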

Sequence | self-splicing fitness (ln) (30 °C) | self-splicing fitness (ln) (37 °C)
ACUAAGCAAUAUUACGGCCG | -0.147 ± 0.087 | -0.306 ± 0.12
UUCCAGCAAUAUUACGGUCG | -0.395 ± 0.081 | 0.623 ± 0.11
GCGUAGCAAUAUUACGGUCU | -0.587 ± 0.091 | -0.159 ± 0.1
UGCGAGCAAUAUUACGGUGA | -2.28 ± 0.18 | -1.49 ± 0.16
CGGCAGCAAUAUUACGCGAU | -2.36 ± 0.19 | -1.4 ± 0.25
AUUAAGCAAUAUUACGGUCA | -1.4 ± 0.14 | -0.528 ± 0.14
AGGCAGCAAUAUUACGAGAC | -1.96 ± 0.13 | -2.65 ± 0.22
CUAUAGCAAUAUUACGUGAG | -0.571 ± 0.057 | -0.137 ± 0.086
UGACAGCAAUAUUACGUCAA | -2.37 ± 0.18 | -0.896 ± 0.11
AAGAAGCAAUAUUACGCUUC | -3 ± 0.26 | 
CCUCAGCAAUAUUACGGCAU | -3.12 ± 0.13 | -2.42 ± 0.18
UCGUAGCAAUAUUACGGUUA | -1.39 ± 0.15 | -0.71 ± 0.12
AGCUAGCAAUAUUACGUUAG | -3.14 ± 0.22 | -2.56 ± 0.22
UUUUAGCAAUAUUACGAAUG | -1.04 ± 0.077 | -0.0853 ± 0.096
GGCAAGCAAUAUUACGAGUC | -2.64 ± 0.12 | -1.78 ± 0.13
CACGAGCAAUAUUACGUCCU | -3.93 ± 0.3 | -2.81 ± 0.29
AGCAAGCAAUAUUACGAGAG | -3.11 ± 0.2 | -2.42 ± 0.25
GAUUAGCAAUAUUACGCCUG | -1.56 ± 0.2 | -0.102 ± 0.19
AAACAGCAAUAUUACGGCUC | -0.311 ± 0.068 | 0.201 ± 0.095
GGGGAGCAAUAUUACGACUG | -0.399 ± 0.45 | 
AACUAGCAAUAUUACGCAGU | -4.36 ± 0.41 | -1.96 ± 0.21
GGUAAGCAAUAUUACGCCUA | -0.917 ± 0.088 | -0.737 ± 0.091
GCAUAGCAAUAUUACGUUGG | -3.88 ± 0.22 | -2.28 ± 0.18
AAUAAGCAAUAUUACGGGAA | -2.54 ± 0.28 | -0.437 ± 0.2
AUUAAGCAAUAUUACGGUUU | -0.783 ± 0.07 | 0.254 ± 0.12

Sequence | self-splicing fitness (ln) (30 °C) | self-splicing fitness (ln) (37 °C)
AGAUAGCAAUAUUACGUUUC | -3.56 ± 0.29 | 
GACGAGCAAUAUUACGGACG | -1.64 ± 0.21 | -2.33 ± 0.31
UGAGAGCAAUAUUACGUAAG | -3.27 ± 0.23 | -1.67 ± 0.21
UACGAGCAAUAUUACGGUAU | -3.12 ± 0.26 | -3.28 ± 0.3
AUGUAGCAAUAUUACGCCAU | -2.41 ± 0.19 | -2.18 ± 0.24
CUUUAGCAAUAUUACGUUUC |  | -2.15 ± 0.23
AUCGAGCAAUAUUACGUAUU | -3.67 ± 0.21 | -2.5 ± 0.18
CAGAAGCAAUAUUACGAUUU | -2.06 ± 0.096 | -1.16 ± 0.11
GCUCAGCAAUAUUACGUUGA | -3.15 ± 0.18 | -2.42 ± 0.2
UUCUAGCAAUAUUACGACAU | -2.324 ± 0.019 | -1.57 ± 0.034
CAAUAGCAAUAUUACGACGG | -0.109 ± 0.076 | 0.524 ± 0.1
UUAGAGCAAUAUUACGUCGU | -3.46 ± 0.4 | -1.26 ± 0.21
GCAGAGCAAUAUUACGGUGA | -2.68 ± 0.22 | -2.53 ± 0.24
UUCGAGCAAUAUUACGGCGU | -1.44 ± 0.16 | -0.438 ± 0.19
CAAGAGCAAUAUUACGCCAA | -3.78 ± 0.4 | -2.68 ± 0.3
UAUCAGCAAUAUUACGGGUU | -1.83 ± 0.1 | -0.944 ± 0.11
UCUUAGCAAUAUUACGUGAA | -1.9 ± 0.2 | -2.82 ± 0.43
GUUGAGCAAUAUUACGUGUC | -2.34 ± 0.14 | -2.2 ± 0.2
CUGUAGCAAUAUUACGUUUG | -1.44 ± 0.085 | -0.284 ± 0.1
GAGUAGCAAUAUUACGCGGG | -3.59 ± 0.2 | -2.55 ± 0.16
UUGGAGCAAUAUUACGCUGU | -3.36 ± 0.41 | -2.35 ± 0.37
UCGAAGCAAUAUUACGUUAG | -1.25 ± 0.1 | -1.35 ± 0.13
UUUCAGCAAUAUUACGUGGA | -3.32 ± 0.22 | -2.3 ± 0.35
AGGGAGCAAUAUUACGGUGG | -3.72 ± 0.27 | -3.79 ± 0.36
AUUGAGCAAUAUUACGAUGA |  | -2.08 ± 0.35

Sequence | self-splicing fitness (ln) (30 °C) | self-splicing fitness (ln) (37 °C)
AACCAGCAAUAUUACGUGGA | -2.33 ± 0.093 | -1.13 ± 0.08
GCCUAGCAAUAUUACGGACC | -1.6 ± 0.19 | -1.31 ± 0.28
ACACAGCAAUAUUACGUAGA | -3.64 ± 0.16 | -1.38 ± 0.11
CAUUAGCAAUAUUACGAGCA | -3.42 ± 0.23 | -2.28 ± 0.14
GGAAAGCAAUAUUACGGGCA | -1.2 ± 0.14 | -1.15 ± 0.18
UUGCAGCAAUAUUACGAGCG | -1.14 ± 0.15 | -0.665 ± 0.15
AUAUAGCAAUAUUACGUGUA | -2.27 ± 0.36 | -2.01 ± 0.25
GACUAGCAAUAUUACGUCGG | -3.55 ± 0.21 | -3.32 ± 0.24
UAAUAGCAAUAUUACGCGCC | -2.47 ± 0.34 | -1.39 ± 0.41
AGGGAGCAAUAUUACGGGGU | -3.27 ± 0.36 | -3.01 ± 0.31
GUACAGCAAUAUUACGCACA | -1.52 ± 0.11 | -0.471 ± 0.11
UUUUAGCAAUAUUACGACGC | -2.17 ± 0.31 | -1.56 ± 0.28
GGGGAGCAAUAUUACGGUCG | -2.08 ± 0.28 | -0.686 ± 0.35
AGUUAGCAAUAUUACGUAUU | -2.02 ± 0.1 | -1.04 ± 0.11
AAUGAGCAAUAUUACGACUA | -2.47 ± 0.25 | -0.177 ± 0.21
ACCUAGCAAUAUUACGGCCA | -1.33 ± 0.13 | -0.234 ± 0.12
GCUAAGCAAUAUUACGUGGA | -2 ± 0.093 | -1.7 ± 0.092
GGCAAGCAAUAUUACGGCGA | -0.134 ± 0.082 | 0.235 ± 0.11
GUGAAGCAAUAUUACGAUCU | -1.26 ± 0.13 | -0.0185 ± 0.12
CAUAAGCAAUAUUACGGUUG | -2.47 ± 0.094 | -1.59 ± 0.1
UAGCAGCAAUAUUACGGGUC |  | -3.65 ± 0.42
CUCGAGCAAUAUUACGAGCA | -4.04 ± 0.42 | -2.09 ± 0.27
AUCCAGCAAUAUUACGCAAA | -2.07 ± 0.16 | -0.15 ± 0.11
CUUAAGCAAUAUUACGCCUG | -2.06 ± 0.1 | -0.858 ± 0.089
GGGUAGCAAUAUUACGAGAG | -3.56 ± 0.28 | -2.26 ± 0.2

Sequence | self-splicing fitness (ln) (30 °C) | self-splicing fitness (ln) (37 °C)
GAUAAGCAAUAUUACGACCC | -0.0888 ± 0.28 | -0.582 ± 0.37
AGUCAGCAAUAUUACGGGAC | -2.45 ± 0.18 | -2.16 ± 0.24
ACAAAGCAAUAUUACGAUUG | -2.14 ± 0.069 | -1.55 ± 0.092
AAGCAGCAAUAUUACGACAA | -1.06 ± 0.075 | -0.277 ± 0.072
AAGUAGCAAUAUUACGGUUA | -0.841 ± 0.087 | -0.334 ± 0.085
AGUAAGCAAUAUUACGCUCA | -0.405 ± 0.12 | -0.595 ± 0.11
CGGUAGCAAUAUUACGGUAC |  | -1.22 ± 0.42
UAGCAGCAAUAUUACGGCGU | -0.605 ± 0.12 | 0.0421 ± 0.13
AGGUAGCAAUAUUACGUGCA | -0.829 ± 0.014 | -0.279 ± 0.033
GUCGAGCAAUAUUACGGGAA | -2.39 ± 0.34 | -1.63 ± 0.37
CUACAGCAAUAUUACGGAAA | -4.58 ± 0.46 | -2.9 ± 0.33
UUCAAGCAAUAUUACGGAGU | -3.82 ± 0.27 | -2.56 ± 0.23
CAGUAGCAAUAUUACGCGAG | -2.01 ± 0.16 | -0.736 ± 0.12
CGCCAGCAAUAUUACGUUUA | -3.18 ± 0.15 | -2.83 ± 0.17
CCUGAGCAAUAUUACGACGC | -3.08 ± 0.47 | -0.889 ± 0.22
UCAAAGCAAUAUUACGUCAC | -3.89 ± 0.36 | -3.01 ± 0.4
CCUAAGCAAUAUUACGACGA | -2.67 ± 0.24 | -2.1 ± 0.38
CCCUAGCAAUAUUACGUCGA | -3.58 ± 0.21 | -2.51 ± 0.19
UACCAGCAAUAUUACGAGAG | -2.64 ± 0.12 | -1.12 ± 0.081
CACCAGCAAUAUUACGGCAC | -2.38 ± 0.12 | -1.09 ± 0.11
AUUCAGCAAUAUUACGAGCG | -1.08 ± 0.078 | -0.441 ± 0.1
UUCUAGCAAUAUUACGAAUC |  | -1.98 ± 0.25
